The values that follow come from US12390511B2, “Product and process for mucus viscosity normalization” (ORPRO THERAPEUTICS, INC., priority 2013, dated 2025).

This assay is described as follows: Compaction assay to assess liquefaction of human CF sputum. The settings on record: 0.58 mM in diluent, n=6 per treatment; FIG. 2. The protocol:
Compaction assay to assess liquefaction of human CF sputum. For all manipulations, CF sputum was handled under a microbiologic hood. rhTrx, r(Cys)hTrx or diluent alone (25 microliters), in relevant concentrations, was added to CF sputum (275 microliters) in a 1.5 ml Eppendorf conical tube and mixed by very brief vortexing. After incubation at 37 degrees C. for 30 min, samples were again briefly mixed and loaded into hematocrit tubes and sealed at both ends. After a 5 minute centrifugation in a hematocrit centrifuge, the percent solids (gel) and percent liquid was determined by direct linear measurement and expressed as percent liquid as follows: 100×liquid/(liquid+solids). For each condition, sputum from at least five different CF patients was measured in triplicate.
Comparison of efficacy with standard of care mucolytic agent (rhDNase). For these studies, relevant concentrations of rhTrx, r(Cys)hTrx and rhDNase were compared by incubation as described above. After 30 minutes, samples were assessed for changes in liquefaction of sputum (compaction assay) and alteration of viscoelasticity. In addition, synergy studies were performed. […] For each condition, sputum from at least five different CF patients were measured in triplicate. […]
Human CF sputum collection. Sputum was obtained from adult and pediatric patients with CF as determined by a health care provider. […]

B1: rhDNase: standard of care CF mucolytic Pulmozyme (rhDNase I; dornase alfa) (protein, UniProt P24855 23-282, looked up)
Deoxyribonuclease-1: LKIAAFNIQTFGETKMSNATLVSYIVQILSRYDIALVQEVRDSHLTAVGKLLDNLNQDAPDTYHYVVSEPLGRNSYKERYLFVYRPDQVSAVDSYYYDDGCEPCGNDTFNREPAIVRFFSRFTEVREFAIVPLHAAPGDAVAEIDALYDVYLDVQEKWGLEDVMLMGDFNAGCSYVRPSQWSSIRLWTSPTFQWLIPDSADTTATPTHCAYDRIVVAGMLLRGAVVPDSALPFNFQAAYGLSDQLAQAISDHYPVEVMLK
As for B1, the “liquefaction of patient sputum / mucus-normalizing potency at equimolar concentrations” value was “more potent than equimolar amounts of NAC”.
